The nanobody polyreactivity screen of Harvey et al. (2022)

Assay: yeast display, Sf9 membrane polyspecificity reagent, FACS + sequencing; frameworks hold sequencing errors
Method in brief: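 Galactose-induced (36–48 hours) yeast carrying a synthetic nanobody display library were exposed to 10% biotinylated, detergent-solubilized Sf9 membrane reagent at 4 °C for 1 hour. FACS followed streptavidin microbead enrichment, using low and high (top ~1%) gates for expression (anti-HA) and reagent binding (streptavidin). Colony PCR, MiSeq 2 × 250 sequencing and CDR-length filtering followed. Labels for polyreactivity reflect the gate of origin.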

Row | Sequence | polyreactivity (PSR sort gate)
1 | QVKLVESGGGLVQAGGSLRLSCAASGLTFATYAMGWYREAPGKERELVAAISYSGDSTYYADSVKGRFTISRDNAKNTVYLQMNSLKPEDTAVYYCAKRLKRYRSSYKTFKLDYWGQGTQVTVSS | high polyreactivity
2 | QVQLVESGGGLVQAGGSLRLSCAASGRIFSYNAMGWYRQAPGKERELVAAITGGGSTNYADSVQGRFTISRDNAKNTVYLHMTSLKPEDTAVYYCAADARGYGYYYWGQGTQVTVSS | high polyreactivity
3 | QVQLVESGGGLVQAGGSLRLSCAASGRTFYANTMGWYRPAPGKERELVASITSRGTSTYYADSVKGRFTISRDNAKNTVYLEMNSLKPEDTAVYYCAKAFIAPQYAWGGDYWGQGTQVTVSS | high polyreactivity
4 | QVQLVESGGGLVQAGGSLRLSSAASGSILGDYGMGWYRQAPGKERELVAAITWNGDSTYYADSVKGRFTISRDNAKNTVYLQMNSLKPEDTAVYYCAADLQDYKYYPWYGYWGQGTQVTVSS | low polyreactivity
5 | PVQLVESGGGLVQAGGSLLLSCAASGRIFSRNAMGWNIQAPGKERELVAAISRSGTSTYYADSVKGRFTSSRDNAKNTVYLQMNSLKPEETAVYYCAADYPAVISIRRYDYWGQGTQLTVSS | low polyreactivity
6 | QVQLVESGGGLVQAGGSHRLSCAASGIIYYYNTMGWYRQAPGKEREFVAAISNSGGRTYYADSVKGRFTISRDNAKNTVYLQMNSLKPEDTAVYYCAARYVLFSNRFDYWGQGTQVTVSS | high polyreactivity
7 | QVQLVESGGGLGQAGGSLRLSCAASGFTFPWYAMGWYRPAPGKERELVASISYRGDSTYYADSVKGRFTISRDNAKNTVYLEMNSLKPEDTAVYYCNNSLASYYLPGFDYWGQGTQVTVSS | low polyreactivity
8 | QVQLVESGGGLVQSGGSLRLSCAASGSTVTQYVMGWYRQAPGKERELVAAISDSGSTYYADSVKGRFTISRDKAKNTVYLQMNSLKPEDTAVYYCAAAAPYHGLLYEGDYGGQGTQVTVSS | low polyreactivity
9 | QVQLVESGGGLVQAGGSLRLSCAASGFTFDRYTMGWYRQAPGKEWELVAVIRRGGSTYYADSVKGRFTISRDNAKNTVYLQMNSLKPEDTAVYYCNALSALAVEDGYWGQGTQVTVSS | low polyreactivity
10 | QVQLVESGGGLVQAGGSLRLSCAASGRTFYPYAMGWYRQAPGKERELVAAITWSGGSTYYADSVKGRFTISRDNAKNTVYLQMNSLKPEDTAVYYCNATYEASFYYEYDYWGQGTQVTVSS | low polyreactivity
11 | QVQLVESVGGLVQAGGSLRLSCAASGFIFASYAMGWYRQAPGKERELVAAISWRGGSTYYADSVKGRFTISRDNAKNTVYLQMNSLKPEDTAVYYCKAYVYVGTGRGYDTLDYWGQGTQVTLSS | low polyreactivity
12 | QVQLVESGGGLVQAGGSLRLSCAASGRTFRYYAMGWYRQAPGKERELVAAITGSGGSTYYADSVKGRFTISRDNAKNTVYLQMHSLKPEDTAVYYCNTYLSRWSGERDYWGQGTQVTVSS | high polyreactivity
13 | QVQLVESGGGLVQAGGSLRLSSAASGRTFRGYAMGWYRQAPGKERELVAAISVTGSSTNYAYSVKGRFTISRDNAKNTVYLQMNRLKPEDTAVYDCNAKRVRYSLSYDYWGQGTQVTVSS | high polyreactivity
14 | QVQLVESGGGLVQAGGSLRLSCAASGRTFRANDMGWYRQAPGKERELVAAISQSGGSTYYADSVKGRFTISRDNAKNTVYFQMNSLKPEDTAVYDCNALGRISNHTLYDYWGQGTQVTVSS | low polyreactivity
15 | QVQLVESGGGLVQAGGSLRLSCAASGRTFWVYAMGWYRQAPGKEREFVAAISGSVGSTYYADSVKGRFTISRDNAMKTVYLQMNSLKPEDTAVYYCAARQRRSEYGYWGQGTQVTVSS | high polyreactivity
16 | QVQLVESGGGLVHAGGSLSLSCAASGSIFGQYAMGWYRQAPGKERELVAAISYSTDARTYYADSVKGRFTISRDNAKNTVYLQMNSLKPEDTAVYYFNADSYFGYWGQGTQVTVSS | low polyreactivity
17 | QVQLVESGGGLVQAGGSLRLSCAASGSTFEYNAMGWYRQAPGKERELLADISYSDGSTYYADSVKGRFTISRDNAMNTVYLQMNSLKPEDTGVYYCAAYSGYGGVSMYYWGQGTHVTVSS | low polyreactivity
18 | QVQLVESGGCLGQAGGSLRLTCAASAFTFRHYTKGWYRQAPGKVRVLVAVITRSGGSTYYADSVKGRFTISRDNAKNTVYLQMNRLKPEDTAVYYCAARYKREYNYWGQGTQVTVSS | high polyreactivity
19 | QVQLVESGGGLVQAGGSLRLSCAASGSIFSKYAMGWYRQAPGKERELVAAIDWSGGSTYYADSVKGRFTISRDNAKNTVYLQMNSLKPEDTAVYYCNAEYVVADYGYYTIEFDYWGQGTQVTVSS | low polyreactivity
20 | QVQLVESGGGLVQAGGSLRLSCAASGSIFPWNAMGWYRQAPGKERELVAAISFSSGGSTYYADSVKGRFTISRDNAKNTVYLQMNSLKPEDPAVYYCAARTKLWVLGNYYYWGQGTQVTVSS | high polyreactivity
21 | QVQLVESGGGLVQAGGSLRLSCAASGLIFTNYAMGWYRQAPGKERELVAGISTRGTSTYYADSVKGRFTISRDNAKNTVYLQMNSLKPEDTAVYYCAAVHRVVRAYDYWGQGTQVTVSS | high polyreactivity
22 | QVQLVESGGGLVQAGGSLRLSCAASGSIFDYYAMGWYRQAPGKERELVASISWIGDRTYYADSVKGRFTISRDNAKNTVYLQMNSLKPEDTAVYYCATDYYEDWRGYEVYWYRPYDYWGQGTQVSVSS | high polyreactivity

Row | Sequence | polyreactivity (PSR sort gate)
23 | QVQLVESGGGLVQAGGSLRLSCAASGSTSSVYAIGWYRQAPGKEREFVASITRRTGITFYADSVKGRFTISRDHAKNTVYLQMNSLKPEDTAVYYCAADFSGSVDYWGQGTQVTVSS | high polyreactivity
24 | QVQLVESGGGLVQAGGSLRLSCAASGRIFYLKAMGWYRQAPGTERELVAAINTSGDSTYYADSVKGRFTISRDNAKNTVDLQMNSLKPEDTAVSYCAAYVIGPDQFIYDYWGQGTQVTVSS | low polyreactivity
25 | QVQLVESGGGLVQAGGSLRLSCAASGSTFRINAMGWYRQAPGKERELVAAITSGGSTKYADSVKGRFTISRDNAKNTVYLQMNSLKPEDTAVYYCNKQGYPYRYFAWYPGYNYWGQGTQVTVSS | low polyreactivity
26 | QVHLVESGGGLLQAGGSLPLSCAASGSIFYSYAMGWYRQAPGKVRELVAVISWSGGSTYYADSVKGRFTISRDNAKNTVYLQMNSLKPEDTAVYYCAADQGWEFDYWGQCTQVTVSS | low polyreactivity
27 | QVQLVESGGGLVQAGGSLRLSCAASGFIFDSNVMGWYRQAPGKERELVATITNRGGRTYYADSVKGRFTISRDNAKNTVYLQMNSLKPEDTAVYYCNRRWIWTRDRGGYWGQGTQVTVSS | low polyreactivity
28 | QVQLVESGGGLVQAGGSLRLSCAASGSTFYGYALGWYRQAPGKERELVAAITRSGGSTYYADSVKGRFTISRDNAKNTVYLQMNSLKPEDTEVYYCNKYGYKGGVGYDYWGQGTQVTVSS | high polyreactivity
29 | QVQLVESGGGLVQAGGSLRLSCAASGRIFLQNAMGWYRQAPWKERELVASISSSGGTTYYADSVKGRFTISRDNAKNTVYLQMNSLKPEDTAVYYCAADYGHYSTPMDYWGQGTQVTVSS | low polyreactivity
30 | QVQLVESGGGLVQAGGSLRLSCAASGFIFTSYAMGWYRQAPGKERELVAAITDGGSTNYADSVKGRFTISRDNAKNTVYLQMNSLKPEDTAVYYCAADGFKTVLPEYDYWGQGTQVTVSS | low polyreactivity
31 | QVQLVESGGGLVQAGGSLRFSCAASGSTFVYYAMGWSRQAPGKERELVARITLSGTSTSYADSVKGRFTISRDNAKNTVYLQMNSLKPEDTAVYYCAAESWSHRYYYWGQGTQVTVSS | low polyreactivity
32 | QVQLVESGGGLVQAGGSLRLSCAASGFIFTGNVMGWYRQAPGKERELVAAIRWSGGRTYYADSVKGRFTISRDNAKNTVYLQMNSLKPEDTAVYYCNALGRVQGYKPGGLDYWGQGTQVTVSS | high polyreactivity
33 | QVQLVESWRGLVQAGGSLRLSCAASGNTFRWYAMGWYRQEPGKEREFVADITVRGGSTYYADSLKGRFTISRDNAKNTVYLQMNSLKPEQTAVYYCAVDFRRYPGFDYWGQGTQVTVSS | low polyreactivity
34 | QVQLVESGGGLVQAGGSLRLSCAASGITLYFYAMGWYRQAPWKERELVAAISRGGRTYYADSVKGRFTISRDNAKNTVYLQMNSLKPEDTAVYYCAARYTSEYSAFDYWGQGTQVTVSS | low polyreactivity
35 | QVQRVESGGRLVQAGGSLRLSCAASGFIFRYYAMGWYRQAPGKERELVAAISSRGGTTYYADSVKGRFTISRDNPNNTVYLQMNSLKPEDTPVDYGAAGGGRFRHGGRDYWGQGTQVTVSS | high polyreactivity
36 | QVQLVESGGCLLQAGGSLRLSCAASGFTFRKNAMGWYRDAPGKERQLVAAISSGTSTYYADSVKVRFTISRDNAKNTVYLQMNSLKPEDTAVYYCAAARYRTDDYCGQGTQVTVSS | high polyreactivity
37 | QVQLVESGGGLVQAGGSLSLSCPASGRIFRWNAMGWYRQAPGKEREFVAAISWSGGSTYYADSVKGRFTISRDNAKNTVYLQMNSLKPEDTAVYYCNKVGYYGVGTSQEFDYWGQGTQVTVSS | high polyreactivity
38 | QVQLVESGGGLVQAGGSLRLSCAASGLTFWDYAMGWYRQAPGKETELVAAISNDDSTYADSVKGRFTISRDNAKNTVYLQMNSLKPEDTAVYYCAAQSYYTWPEMGYWGQGTQVTVSS | low polyreactivity
39 | QVQLVESGGGLVQAGGSLRLSCAASGRTFRYYAMGWSRQAPGKERELVASITSGGRTYYADSVKGRFTISRDNAKNTVYLQMNSLKPEDTAVYYCAADTPVTASSPPSDYWGQGTQVTVSS | high polyreactivity
40 | QVQLVESGGGLVQAGGSLRLSCSASGSTFAYYTMGWYRQAPGKERELVAAISRSGGSTYYSDSVKGRFTISRDNAKNTVYLQMNSLKPEDTAVYYCAADKHYAVIPYEYWGQVTQVTVSS | high polyreactivity
41 | QVQLVESGGGLVQAGGSLRLSCAASGLIFYGNAMGWYRQAPVKERELVAAISRRGGRTYYADSVKGRFTISRDNAKNTVYLQMNSLKPEDTAVYYCAAGVPKNGQAGYDYWGQGTQVTVSS | high polyreactivity
42 | QVQLVESGGGLVQAGGSLPLSCAASGRIFSYYAMGRYRQAPGKERELVASISRSGGSTYYADSVKGRFTISRDNAKNTVYLQMISLKPEDTAVYYCAAYKYVRSYPYDYWGQGTQVTVSS | low polyreactivity
43 | QVQLVESGRGLVQAGGSLRLSCAASGFIFYSNAMGWYRQAPGKERELVAAISRGGGSTYFADSLKGRFTISRDNAKNTVYLQMNSLKPEDTAVYYCAKRRLSPQDDYWGQGTQVTVSS | high polyreactivity
